Source: publication PMC4725857

B1: BBK32-FL (recombinant BBK32, residues 21 to 354) (natural protein)
chain: DLFIRYEMKEESPGLFDKGNSILETSEESIKKPMNKKGKGKIARKKGKSKVSRKEPYIHSLKRDSANKSNFLQKNVILEEESLKTELLKEQSETRKEKIQKQQDEYKGMTQGSLNSLSGESGELEEPIESNEIDLTIDSDLRPKSSLQGIAGSNSISYTDEIEEEDYDQYYLDEYDEEDEEEIRLSNRYQSYLEGVKYNVDSAIQTITKIYNTYTLFSTKLTQMYSTRLDNFAKAKAKEEAAKFTKEDLEKNFKTLLNYIQVSVKTAANFVYINDTHAKRKLENIEAEIKTLIAKIKEQSNLYEAYKAIVTSILLMRDSLKEVQGIIDKNGVWY
B2: BBK32-C (C-terminal region of BBK32, residues 206-354) (domain or fragment)
chain: SNRYQSYLEGVKYNVDSAIQTITKIYNTYTLFSTKLTQMYSTRLDNFAKAKAKEEAAKFTKEDLEKNFKTLLNYIQVSVKTAANFVYINDTHAKRKLENIEAEIKTLIAKIKEQSNLYEAYKAIVTSILLMRDSLKEVQGIIDKNGVWY

Tests used:
[1] = molecular target: BBK32-C (C-terminal region of BBK32, residues 206-354) (B. burgdorferi B31) (UniProt O50835); test: SPR; Biacore 3000, 25°C; BBK32 proteins immobilised by amine coupling on a C1 sensor chip; running buffer HBS-T-Ca2+ (20 mM HEPES pH 7.3, 140 mM NaCl, 0.005% Tween 20, 5 mM CaCl2), 10 μl/min; C1 0.2-100 nM, C1r enzyme 0.39-200 nM or 2.0-1000 nM series, 1:1 (Langmuir) kinetic fit; single C1 components at a fixed 50 nM
[2] = molecular target: BBK32-FL (recombinant BBK32, residues 21 to 354) (B. burgdorferi B31) (UniProt O50835); test: as above
[3] = molecular target: C1r enzyme (activated human complement C1r protease) (human)
[4] = molecular target: first component of human complement, C1 (C1 complex) (human) (UniProt P02745)

| Molecule | Kd [1] [nM] | koff [1] [s⁻¹] | kon [1] [M⁻¹ s⁻¹] | Kd [2] [nM] | koff [2] [s⁻¹] | kon [2] [M⁻¹ s⁻¹] | IC50 of C1r enzyme activity (cleavage of C1s proenzyme by 50 nM C1r enzyme, SDS-PAGE densitometry) [3] [nM] | IC50 of classical pathway inhibition, ELISA: C3b detection (immobilised human IgM, 1% human serum) [4] [nM] | IC50 of classical pathway inhibition, ELISA: C4b detection (immobilised human IgM, 1% human serum) [4] [nM] | IC50 of inhibition of CP-mediated hemolysis (CP50, sensitized sheep erythrocytes, 1% normal human serum) [4] [nM] |
| --- | --- | --- | --- | --- | --- | --- | --- | --- | --- | --- |
| C1r enzyme (activated human complement C1r protease) | 32 | 0.00011 | 3900 | 15 | 0.00022 | 19000 | – | – | – | – |
| first component of human complement, C1 (C1 complex) (from UniProt P02745 23-245; P02746 28-253; P02747 29-245) | 2.3 | – | – | – | – | – | – | – | – | – |
| B1 | – | – | – | – | – | – | 670 | 34 | 34 | 110 |
| B2 | – | – | – | – | – | – | 540 | 4.7 | 5.6 | 60 |
